Values of other authors in patent US20230173142A1, “BALLISTIC DELIVERY TO MULTILAYERED TISSUES AND RELATED PARTICLES, COMPOSITIONS, METHODS AND SYSTEMS” (CALIFORNIA INSTITUTE OF TECHNOLOGY, priority 2021, published 2023).

System: wound healing
Settings: Material: Nanofiber

B1: G-CSF: granulocyte colony-stimulating factor (protein, UniProt P09919 31-207, looked up)
Granulocyte …: TPLGPASSLPQSFLLKCLEQVRKIQGDGAALQEKLVSECATYKLCHPEELVLLGHSLGIPWAPLSSCPSQALQLAGCLSQLHSGLFLYQGLLQALEGISPELGPTLDTLQLDVADFATTIWQQMEELGMAPALQPTQGAMPAFASAFQRRAGGVLVASHLQSFLEVSYRVLRHLAQP
  Effect: Improved wound closure, scar reduction, fibroblast maturation, as well
